No end group written: not given here.
Legend:
[1] = molecular target: human CRF receptor, subtype A, variant 1 (hCRF-RA1), encoded by clone hctCRFR (human) (UniProt P34998); assay: binding to the receptor encoded by hctCRFR in COSM6 cell membranes (competitive radioreceptor assay of Example 3)
[2] = molecular target: T1, mouse CRF receptor, subtype B, variant 1 (mCRF-RB1) (mouse, UniProt Q60748 35-411); assay: competitive displacement of 125I-(Nle21,Tyr32)-ovine CRF, membranes of COSM6 cells transfected with pCRF-RB1
T1 construct: Full-length cDNA (431 amino acids) in pcDNA1, transiently expressed in COSM6 cells; also called pCRF-RB1
Method: (§1) The reaction was terminated by filtration through GF/C (Whatman) filters, prewetted with 1% BSA, 10 mM HEPES, pH 7.5. The filters were washed 4 times with 1 ml 0.1% BSA, 50 mM Tris, pH 7.5.
(§2) Using the methods described in Example 3, a radioreceptor assay was conducted. Approximately […] of pCRF-RB₁ plasmid DNA was transfected into COSM6 cells using the DEAE dextran method. […] In order to calculate a Kd, the displacement data were analyzed using the Ligand program of Munson and Rodbard (1980), Anal. Biochem., 107:220-239.

[3] = molecular target: T2, human CRF receptor, subtype A, variant 1 (hCRF-RA1), encoded by clone hctCRFR (human, UniProt P34998 24-415); assay: pharmacologic specificity of the receptor of SEQ ID NO:2
T2 construct: Transiently expressed in COSM6 cells; Clone hctCRFR (ATCC 75474) and clone CRF-R1 are both said to encode hCRF-RA1; also called CRF-R1; hctCRF receptor
T2 sequence: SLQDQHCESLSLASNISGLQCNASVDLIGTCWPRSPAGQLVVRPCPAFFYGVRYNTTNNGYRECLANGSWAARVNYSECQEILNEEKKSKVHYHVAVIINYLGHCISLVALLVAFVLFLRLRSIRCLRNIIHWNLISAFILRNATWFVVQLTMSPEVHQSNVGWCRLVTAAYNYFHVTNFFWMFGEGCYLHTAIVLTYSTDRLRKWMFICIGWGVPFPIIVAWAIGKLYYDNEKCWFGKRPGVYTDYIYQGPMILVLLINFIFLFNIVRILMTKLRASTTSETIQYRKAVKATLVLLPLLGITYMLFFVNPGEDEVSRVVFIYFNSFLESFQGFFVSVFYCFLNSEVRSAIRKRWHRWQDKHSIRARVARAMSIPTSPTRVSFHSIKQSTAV

[4] = molecular target: T1, mouse CRF receptor, subtype B, variant …; assay: competitive displacement of 125I-(Nle21,Tyr32)-ovine CRF, membranes of COSM6 cells transfected with pCRF-RB1, Ligand program, six experiments
Method: as §1, §2

T1 sequence (Q60748 other isoform, or with tags, fused parts or gaps mutant limits assumed): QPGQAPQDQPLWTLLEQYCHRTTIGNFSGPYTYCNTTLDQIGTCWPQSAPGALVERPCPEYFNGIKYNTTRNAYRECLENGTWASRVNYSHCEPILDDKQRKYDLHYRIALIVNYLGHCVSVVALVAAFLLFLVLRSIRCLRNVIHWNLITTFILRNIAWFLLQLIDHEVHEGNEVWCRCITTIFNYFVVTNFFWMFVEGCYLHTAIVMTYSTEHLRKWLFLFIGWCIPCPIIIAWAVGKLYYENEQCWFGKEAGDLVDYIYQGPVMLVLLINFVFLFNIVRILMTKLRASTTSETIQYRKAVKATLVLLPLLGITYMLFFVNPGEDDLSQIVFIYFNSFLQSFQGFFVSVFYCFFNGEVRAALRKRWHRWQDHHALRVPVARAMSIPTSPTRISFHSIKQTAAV

**Q.** For “CRF antagonist a-helical (9-41) CRF (peptide)”, which Kd [1] is on record?
**A.** 13 nM

B1: vasoactive intestinal peptide (VIP) (peptide, UniProt P01282 125-152, looked up)
peptide: HSDAVFTDNYTRLRKQMAVKKYLNSILN
notes: also called vasoactive intestinal polypeptide
**Q.** Does B1 bind [2]?
**A.** no binding

B2: hGRF(1-40)OH (peptide, UniProt P01286 32-71, looked up)
peptide: YADAIFTNSYRKVLGQLSARKLLQDIMSRQQGESNQERGA-OH
notes: range 1-40; also called growth hormone releasing factor
**Q.** Does B2 bind [2]?
**A.** no binding

**Q.** Does QGPPISIDLSLELLRKMIEIEKQEKEKQQAANNRLLLDTI (ligand, UniProt P01144 1-40, looked up) [sauvagine] bind [3]?
**A.** binds

B3: rat/human corticotropin-releasing factor (r/h CRF) (ligand, UniProt P06850 154-194, looked up)
peptide: SEEPPISLDLTFHLLREVLEMARAEQLAQQAHSNRKLMEII
notes: mature; The peptide in the assay is the mature 41-residue CRF; also called human/rat CRF; native r/h CRF
**Q.** For B3, which Kd [4] is on record?
**A.** ~1.3 nM

Source: patent publication US20040039173A1 (SALK INSTITUTE FOR BIOLOGICAL STUDIES, published 2004)
